Measured values: patent US7294706

Target: FGFR2 over-expressed on CHO cells (CHO-FGFR2) and on 32D cells (32D-FGFR2) (UniProt P21803)
Experiment: competition of unlabeled protein with 125I-FGF4 (Gly79-Leu206) for CHO-FGFR2 cells, +heparin

- IC50 mutant/IC50 wild-type (ratio (IC50 mutant/IC50 wild-type)): > 1000
Substance: FGF4 (Gly79-Leu206) N89A/K198A/K183A/K188A (from UniProt P08620 79-206) (ligand)
